The record followed here is the supplement of paper PMC9170038.

This data set concerns MS2 coat protein. As to the kind of experiment: apparent KD of MS2 coat protein; designed switch direction (-1 OFF switch, 1 ON switch): 1; higher = weaker reporter binding. In a few lines: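 The apparent KD reported per design is the median over clusters of curve fits to normalised cluster fluorescence. The RNA switches were transcribed on Illumina chips by stalled E. coli RNA polymerase. SNAP-549-labelled MS2 coat protein was titrated from 0.7 or 1.5 nM, doubling up to 3 µM, in Tris-HCl pH 7.5 buffer containing KCl, MgCl2, BSA, DTT, tRNA and Tween-20, with no input, 200 uM small-molecule ligand, or an oligonucleotide input.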

Setting [1] is: input ligand: microRNA oligo, concentration not stated.
Where [2] appears, read: Eterna round: R95, input ligand: FMN 200 uM.
Where [3] appears, read: Eterna round: R95, input ligand: microRNA oligo, concentration not stated.
Setting [4] is: Eterna round: R95, input ligand: none.

For “ACUCUCACAGUAGGAUAUGUAGGAUAUGCCUACAUGAGGAUCACCCAUGUAAACAUGGCAGAAGGACAGAAGGACUUACAUUGG [pwkr ssNG2 2FMN + 1F5.2] (Eterna round: R96, puzzle: Same State NG 2)”, the “apparent KD of MS2 coat protein” value reads like this: (input ligand: FMN 200 uM) 31.7 nM; under setting [1], 197 nM; (input ligand: none) 408 nM.

Consider “ACUUGCCGCACAGGAUAUGGGUGCCUGUACAUGAGGAUCACCCAUGUUAAGGGACGGAUUACGAACCAGAAGGGUGAGGCGGGC [Tigeti] (Eterna round: R96, puzzle: Same State NG 2)”, for which the “apparent KD of MS2 coat protein” value was found to be 124 nM (input ligand: FMN 200 uM), 418 nM under setting [1] and 750 nM (input ligand: none).

For the sequence “AGAAGACAUGAGGAUCACCCAUGUACAUAAUGAGGAGAAUGGGAGGAUAUGUAGAGAGAGAGGGAGCAGAAGGUCCAGUAUGAA [Default title] (Eterna round: R96, puzzle: Same State NG 3)”, the “apparent KD of MS2 coat protein” value turned out to be 98.9 nM (input ligand: FMN 200 uM), 99.2 nM under setting [1] and 148 nM (input ligand: none).

“AGACUACAACCUCGAACAUGAGGAUCACCCAUGUAAAGAUCCAAGGAUAUGGACAGGCCGAGCUACCAGAAGGUGGAAAGAGCC [Eternabot solution 7] (Eterna round: R96, puzzle: Same State NG 3)”: the “apparent KD of MS2 coat protein” value by setting is: (input ligand: FMN 200 uM) 40.9 nM; under setting [1], 38.4 nM; (input ligand: none) 69.8 nM.

In the case of “AGAGAACAUGAGGAUCACCCAUGUGGGAGAGGCAUAGGAUAUAGAGGAGAGAGCGAGGAACUAGAAGGAUGAUGGA [JR_SS1_Sub080] (puzzle: Same State 1)”, the “apparent KD of MS2 coat protein” value is, setting by setting: under setting [2], 47.3 nM; under setting [3], 70.7 nM; under setting [4], 91.3 nM.

Take “AGAGGAGGAGCAGGAUAUUCGAAGAAGAACGUGGAAGAAGGGUUCAUGCGAUGACAUGAGGAUCACCCAUGUACCGCGCGAGGA [AK SSNG1-V2-11] (Eterna round: R96, puzzle: Same State NG 1)”: the “apparent KD of MS2 coat protein” value came out at 50 nM (input ligand: FMN 200 uM), 42.9 nM under setting [1] and 67.6 nM (input ligand: none).

For the sequence “AGAUCAUGACGAGGAUAUGGUACAUGAGGAUCACCCAUGUAUGUACCACGACGGAAACGUCGAAUCCAGAAGGCGUCGUGAUCA [Mat - Same State NG 2 - JL mod - D23] (Eterna round: R96, puzzle: Same State NG 2)”, the “apparent KD of MS2 coat protein” value is, setting by setting: (input ligand: FMN 200 uM) 47.5 nM; under setting [1], 100 nM; (input ligand: none) 127 nM.

Take “AGAUCAUGACGAGGAUAUGGUACAUGAGGAUCACCCAUGUAUGUACCAUAACGCGUACGACGAAACCAGAAGGCGUCGUGAUCA [Mat - Same State NG 2 - JL mod - D41] (Eterna round: R96, puzzle: Same State NG 2)”: the “apparent KD of MS2 coat protein” value is, setting by setting: (input ligand: FMN 200 uM) 9.06 nM; under setting [1], 12.2 nM; (input ligand: none) 20.7 nM.

For “AGAUGGUGUGGAAAGGAUAUACUGUUGAGGACAUGAGGAUCACCCAUGUGGUAGAGGAGGUAAGGGUAGAAGGUUCGGGAUUGGU [JR_SS@_Sub020] (puzzle: Same State 2)”, the “apparent KD of MS2 coat protein” value is, setting by setting: under setting [2], 29.9 nM; under setting [3], 32.3 nM; under setting [4], 41.6 nM.

On to “AGAUGUUAAUUAGGAUAUGGUCACAUGAGGAUCACCCAUGUAACGAAGAUACGAUGUGGUCAAGACUAGAAGGGAUCGCUAACA [SameState NG2 #73] (Eterna round: R96, puzzle: Same State NG 2)”, for which the “apparent KD of MS2 coat protein” value was 40.5 nM (input ligand: FMN 200 uM), 47.4 nM under setting [1] and 55.3 nM (input ligand: none).

Turning to “AGCACUUCAGAAGGAUAUGAGAUGCUAAGCAUCUUAGAAGGUCUGCCGUAAAGAAACGUCCACAUGAGGAUCACCCAUGUUGCA [Eternabot solution 28] (Eterna round: R96, puzzle: Same State NG 1)”, the “apparent KD of MS2 coat protein” value by setting is: (input ligand: FMN 200 uM) 20.9 nM; under setting [1], 21.9 nM; (input ligand: none) 26 nM.

“AGCGAGAUAGGCAAGGAUAUGUAGUUUGGCACAUGAGGAUCACCCAUGUCAAUCCAUUUUUUGGAACAGAAGGUGCAUUCUCUUU [ak fourth] (puzzle: Same State 2)”: the “apparent KD of MS2 coat protein” value under setting [2] turned out to be 33.4 nM, the “apparent KD of MS2 coat protein” value under setting [3] was 12.2 nM and the “apparent KD of MS2 coat protein” value under setting [4] turned out to be 19.5 nM.

“AGCGUCCACACAGGAUAUCACCUGCACUGCAGGUGAGAAGGGUGACCGGUGCGCAAUAACGACAUGAGGAUCACCCAUGUAAAA [Vegea] (Eterna round: R96, puzzle: Same State NG 1)”: the “apparent KD of MS2 coat protein” value was determined as 775 nM (input ligand: FMN 200 uM), 38.3 nM under setting [1] and 143 nM (input ligand: none).

Turning to “AGCUAGUACCGAGGAUAUACAUACAUGAGGAUCACCCAUGUAUACAUGAUUUAAUGAGACUACAUGUAGAAGGCGGUACUAGCA [JL SSNG2 1.23] (Eterna round: R96, puzzle: Same State NG 2)”, the “apparent KD of MS2 coat protein” value runs as follows: (input ligand: FMN 200 uM) 22 nM; under setting [1], 68.6 nM; (input ligand: none) 79.1 nM.

As to “AGCUAUUAAUCAGGAUAUGGUGACAUGAGGAUCACCCAUGUAUUGAUGAUUAAAUGUGGUCAAUACCAGAAGGGAUUACUAACA [SameState NG2 #51] (Eterna round: R96, puzzle: Same State NG 2)”, the “apparent KD of MS2 coat protein” value (input ligand: FMN 200 uM) was 44.6 nM, the “apparent KD of MS2 coat protein” value under setting [1] was 401 nM and the “apparent KD of MS2 coat protein” value (input ligand: none) came out at 537 nM.

With “AGCUAUUACGAAGGAUAUAGGGACAUGAGGAUCACCCAUGUGUACAUGAGUAAAUGUGAUCACGUCUAGAAGGUUGUACUAACA [SameState NG2 #36] (Eterna round: R96, puzzle: Same State NG 2)”, the “apparent KD of MS2 coat protein” value by setting is: (input ligand: FMN 200 uM) 474 nM; under setting [1], 383 nM; (input ligand: none) 430 nM.

As to “AGGAUGAGAACAGGAUAUUCGACAUGAGGAUCACCCAUGUGGCAAGUAGGUGACGAUGAAUGACGGAAGAAGGGUUACGAGGAG [Same State NG2] (Eterna round: R96, puzzle: Same State NG 2)”, the “apparent KD of MS2 coat protein” value by setting is: (input ligand: FMN 200 uM) 375 nM; under setting [1], 197 nM; (input ligand: none) 199 nM.

As to “AGGCUCAGACGAGGAUAUGAUCAUGGCGCUUCGGCGCAUACAUGAGGAUCACCCAUGUAAAGUGAUCAGAAGGUGUCUGAGCCA [SSNG2/7-B1] (Eterna round: R96, puzzle: Same State NG 2)”, the “apparent KD of MS2 coat protein” value (input ligand: FMN 200 uM) amounted to 13.9 nM, the “apparent KD of MS2 coat protein” value under setting [1] turned out to be 11 nM and the “apparent KD of MS2 coat protein” value (input ligand: none) was 16.1 nM.

Turning to “AGGCUCAGAGCAGGAUAUAUGUGGUCACAUGAGGAUCACCCAUGUCUCGAGCUUCGGCUCGAGGCAUAGAAGGGCUCUGAGCCA [SSNG2/5-B1] (Eterna round: R96, puzzle: Same State NG 2)”, the “apparent KD of MS2 coat protein” value came out at 963 nM (input ligand: FMN 200 uM), 22.9 nM under setting [1] and 53.9 nM (input ligand: none).

With “AGGCUCAGCAUGCAGGAUAUAGUCGCUGCGACAUGAGGAUCACCCAUGUGGUGUGAAAGAAAGCGCUAGAAGGGUAAAGUGAGUG [Beeran] (puzzle: Same State 2)”, the “apparent KD of MS2 coat protein” value worked out at 244 nM under setting [2], 467 nM under setting [3] and 750 nM under setting [4].

Take “AGGGAGGAAGCUGAGGAUAUCGUAAGGAGGACAUGAGGAUCACCCAUGUGUAUAGAAUUGGAGGACGAGAAGGCAGAGGAGUGGG [JR_SS2_Sub052] (puzzle: Same State 2)”: the “apparent KD of MS2 coat protein” value stood at 25.5 nM under setting [2], 29.3 nM under setting [3] and 25.6 nM under setting [4].

On to “AGGUGGUGUGGAAAGGAUAUACGGUUGAGGACAUGAGGAUCACCCAUGUGGUAGAGGACGUGAGUGUAGAAGGUUCGGGAUUGGU [JR_SS@_Sub023] (puzzle: Same State 2)”, for which the “apparent KD of MS2 coat protein” value under setting [3] was found to be 48.5 nM.

“AGGUGGUGUGGAAAGGAUAUACUGUUGAGGACAUGAGGAUCACCCAUGUGGUAGAGGACGUAAGGGUAGAAGGUUCGGGAUUGGU [JR_SS@_Sub021] (puzzle: Same State 2)”: the “apparent KD of MS2 coat protein” value was 46.2 nM under setting [2], 50.2 nM under setting [3] and 75.4 nM under setting [4].

In the case of “AGUAUACAUGAGGAUCACCCAUGUCAGUAACUGACAGGAUAUGCGUUGCAUCACUGUAAUGCAGAAGGGUCUUGUA [Same State 1 - Mod of JMF's solution 1] (Eterna round: R96, puzzle: Same State 1)”, the “apparent KD of MS2 coat protein” value (input ligand: FMN 200 uM) was determined as 138 nM, the “apparent KD of MS2 coat protein” value under setting [1] was 324 nM and the “apparent KD of MS2 coat protein” value (input ligand: none) came to 379 nM.

As for “AGUAUACAUGAGGAUCACCCAUGUCAGUAACUGACAGGAUAUGCGUUGCAUCACUGUAAUGCAGAAGGGUCUUGUA [Same State 1 - Mod of JMF's solution 1] (puzzle: Same State 1)”, the “apparent KD of MS2 coat protein” value reads like this: under setting [2], 98.2 nM; under setting [3], 181 nM; under setting [4], 415 nM.

“AGUCCAGCAUGAGCUGGACAAAAGCAUGUACAUGAGGAUCACCCAUGUUCAUGUACAAGCUUUUUGCUCGUCUUAAA [Mat - hsa-mir-208a - Mod of JL - 45] (puzzle: Sensor for hsa-mir-208a)”: the “apparent KD of MS2 coat protein” value under setting [2] was 807 nM, the “apparent KD of MS2 coat protein” value under setting [3] is 17.5 nM and the “apparent KD of MS2 coat protein” value under setting [4] was found to be 562 nM.

For “AGUCCAGCCUAAGCUGGACAAAAGCAUGUACAUGAGGAUCACCCAUGUCAUGUACAAGCUUUUUGCUCGUCUUAAAA [Mat - hsa-mir-208a - Mod of JL - D4] (puzzle: Sensor for hsa-mir-208a)”, the “apparent KD of MS2 coat protein” value by setting is: under setting [2], 684 nM; under setting [3], 16.1 nM; under setting [4], 550 nM.
